Reference: PMC9961634

What was measured:
[1] = target: Beta vulgaris ssp. vulgaris phytoglobin type 1.2 (BvPgb1.2) (Beta vulgaris spp. vulgaris); assay: NMR 15N relaxation (rotational correlation time from R2/R1, ROTDIF, compared with HYDRONMR values for monomeric and dimeric structures); CN-bound BvPgb1.2, 1 mM protein in 50 mM MOPS pH 7.4, 8% D2O, 298 K, 14.1 T; monomer to dimer
[2] = target: Beta vulgaris ssp. vulgaris phytoglobin type 1.2 (BvPgb1.2) (Beta vulgaris spp. vulgaris); assay: SEC; analytical size exclusion chromatography of the purified protein samples; conditions not given (ref. 23)
[3] = target: Hb1 (Oryza sativa) (UniProt O04986); conditions: cited from earlier work

Row | stoichiometry N [1] | stoichiometry N [2] | Substance | Kd [3] [µM]
1 | 2 | 2 | Beta vulgaris ssp. vulgaris phytoglobin type 1.2 (BvPgb1.2) (natural protein) | –
2 | – | – | Hb1 (from UniProt O04986) | 86
